From article PMC7376121, “In-Lipid Structure of Pressure-Sensitive Domains Hints Mechanosensitive Channel Functional Diversity” (Biophysical Journal, 2020)
Residue numbers refer to the chain shown, from its start. Names and notes keep the numbering of the source.

B1: Mycobacterium tuberculosis MscL Y87C, MTSSL spin-labelled (TbMscL Y87R1) (natural protein)
chain: MLKGFKEFLARGNIVDLAVAVVIGTAFTALVTKFTDSIITPLINRIGVNAQSDVGILRIGIGGGQTIDLNVLLSAAINFFLIAFAVCFLVVLPYNTLRKKGEVEQPGDTQVVLLTEIRDLLAQTNGDSPGRHGGRGTPSPTDGPRASTESQ
modifications: MTSSL spin label on the cysteine at 87 (R1)
notes: also called TbY87R1
B2: Mycobacterium tuberculosis MscL F88C, MTSSL spin-labelled (TbMscL F88R1) (natural protein)
chain: B1 chain with C87Y, F88C
modifications: MTSSL spin label on the cysteine at 88 (R1)
notes: also called TbF88R1
B3: Mycobacterium tuberculosis MscL L89C, MTSSL spin-labelled (TbMscL L89R1) (natural protein)
chain: B1 chain with C87Y, L89C
modifications: MTSSL spin label on the cysteine at 89 (R1)
notes: also called TbL89R1

Biological target: the molecule itself
Test: PELDOR/DEER; spin-labelled single-cysteine channel in DDM detergent solution (50 mM sodium phosphate pH 7.5, 300 mM NaCl, 0.05% DDM), diluted 1:1 with deuterated ethylene glycol, flash frozen; Q band, 50 K; distances between the labels of the subunits of one channel

Row | Protein | stoichiometry N
1 | B1 | 5
2 | B2 | 5
3 | B3 | 5
